Data on 13 molecules can be found in patent US20150344570A1 (published 2015).

Assay [1] deals with T1, FcγRIIIa extracellular domain with C-terminal His tag (human, UniProt P08637 17-208).
T1 construct: extracellular domain; also called FcgRIIIa; 3a
Nature of the assay: SPR (Biacore); He/Con_3a divided by He/Con_2b (FcγRIIIa against FcγRIIb). The method, then: (§1) The heterodimerized antibodies He Abs in which one of the H chains was introduced with an alteration were assayed for their binding activities to each activating FcγR and inhibitory FcγR according to the method described in Example 4. […] The activating FcγRs in FIGS. 26, 27, 28, and 29 are FcγRIa, FcγRIIa (R), FcγRIIa (H), and FcγRIIIa, respectively.
(§2) Analysis of interaction between objective antibody and the FcγR was carried out using Biacore T100 (GE Healthcare). HBS-EP+ (GE Healthcare) was used as the running buffer, and the measurement temperature was set to 25° C. Chips produced by immobilizing the antigen peptide by the amine coupling method to a Series S Sencor Chip CM5 (GE Healthcare), or alternatively, chips produced by allowing preliminarily biotinylated antigen peptides to interact with and immobilize onto a Series S Sensor Chip SA (certified) (GE Healthcare) were used. Antibodies of interest were captured onto an antigen peptide-immobilized chip, and allowed to interact to each FcγR diluted with running buffer. To regenerate and repeatedly use the chip, the antibodies captured on the chip were washed off by reacting 10 mM glycine-HCl, pH 1.5.
(In SPR one partner is held on a chip, and binding of the other changes the refractive index at the surface.)

Assay [2] addresses T2, FcγRIIb extracellular domain with C-terminal His tag (human, UniProt P31994 43-217).
T2 construct: extracellular domain; Soluble receptor expressed in FreeStyle293 cells, used as analyte in Biacore; also called FcgRIIb; 2b
T2 sequence (looked up): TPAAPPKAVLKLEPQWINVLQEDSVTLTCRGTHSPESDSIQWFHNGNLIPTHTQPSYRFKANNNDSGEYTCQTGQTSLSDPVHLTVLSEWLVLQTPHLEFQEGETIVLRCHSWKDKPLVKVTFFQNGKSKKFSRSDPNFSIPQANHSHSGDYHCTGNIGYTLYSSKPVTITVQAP
Nature of the assay: SPR (Biacore), antibody captured on antigen peptide chip, FcγR as analyte; GpH7-A5/GpH7-B3/GpL16-k0 = 100. On the procedure: as §1, §2

In assay [3] the target is T1, FcγRIIIa extracellular domain with …. The description is as above. On the procedure:
as §1, §2

T1 sequence (P08637 17-208): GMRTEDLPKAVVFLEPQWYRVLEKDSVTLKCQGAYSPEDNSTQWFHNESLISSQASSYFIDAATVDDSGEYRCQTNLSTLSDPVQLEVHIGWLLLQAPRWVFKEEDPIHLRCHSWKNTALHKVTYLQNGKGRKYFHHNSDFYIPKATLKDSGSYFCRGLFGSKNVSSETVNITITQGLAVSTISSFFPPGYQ

B1: GpH7-A5/GpH7-B3 variant Q295_13S/GpL16-k0 (antibody, human IgG1, kappa)
heavy 1: not shown
heavy 2: not shown
light: DIVMTQSPLSLPVTPGEPASISCQASESLVHSNRNTYLHWYLQKPGQSPQLLIYKVSNRFSGVPDRFSGSGSGTDFTLKISRVEAEDVGVYYCSQNTHVPPTFGQGTKVEIERTVAAPSVFIFPPSDEQLKSGTASVVCLLNNFYPREAKVQWKVDNALQSGNSQESVTEQDSKDSTYSLSSTLTLSKADYEKHKVYACEVTHQGLSSPVTKSFNRGEC
notes: Heterodimerized anti-glypican-3 IgG1; mutation in the GpH7-B3 chain only; also called He Ab
Take B1: the “He_3a/2b (IIIa/IIb)” value in assay [1] turned out to be 1.51 ratio. Also, the “He/Con_2b (relative binding activity)” value in assay [2] was 56.9 % of control. Besides, the “He/Con_3a (relative binding activity)” value in assay [3] was 86.1 % of control.

B2: GpH7-A5/GpH7-B3 variant S298_14T/GpL16-k0 (antibody, human IgG1, kappa)
heavy 1: not shown
heavy 2: not shown
light: DIVMTQSPLSLPVTPGEPASISCQASESLVHSNRNTYLHWYLQKPGQSPQLLIYKVSNRFSGVPDRFSGSGSGTDFTLKISRVEAEDVGVYYCSQNTHVPPTFGQGTKVEIERTVAAPSVFIFPPSDEQLKSGTASVVCLLNNFYPREAKVQWKVDNALQSGNSQESVTEQDSKDSTYSLSSTLTLSKADYEKHKVYACEVTHQGLSSPVTKSFNRGEC
notes: as for B1
Take B2: the “He_3a/2b (IIIa/IIb)” value in assay [1] came out at 1.45 ratio. Moreover, the “He/Con_2b (relative binding activity)” value in assay [2] is 77.9 % of control. The “He/Con_3a (relative binding activity)” value in assay [3] was 113 % of control.

B3: GpH7-A5/GpH7-B3 variant S324_02A/GpL16-k0 (antibody, human IgG1, kappa)
heavy 1: not shown
heavy 2: not shown
light: DIVMTQSPLSLPVTPGEPASISCQASESLVHSNRNTYLHWYLQKPGQSPQLLIYKVSNRFSGVPDRFSGSGSGTDFTLKISRVEAEDVGVYYCSQNTHVPPTFGQGTKVEIERTVAAPSVFIFPPSDEQLKSGTASVVCLLNNFYPREAKVQWKVDNALQSGNSQESVTEQDSKDSTYSLSSTLTLSKADYEKHKVYACEVTHQGLSSPVTKSFNRGEC
notes: as for B1
For B3, the “He_3a/2b (IIIa/IIb)” value in assay [1] came to 1.33 ratio. For the same molecule, the “He/Con_2b (relative binding activity)” value in assay [2] was 78.3 % of control. Moreover, in assay [3], the “He/Con_3a (relative binding activity)” value was 104 % of control.

B4: GpH7-A5/GpH7-B3 variant S298_04F/GpL16-k0 (antibody, human IgG1, kappa)
heavy 1: not shown
heavy 2: not shown
light: DIVMTQSPLSLPVTPGEPASISCQASESLVHSNRNTYLHWYLQKPGQSPQLLIYKVSNRFSGVPDRFSGSGSGTDFTLKISRVEAEDVGVYYCSQNTHVPPTFGQGTKVEIERTVAAPSVFIFPPSDEQLKSGTASVVCLLNNFYPREAKVQWKVDNALQSGNSQESVTEQDSKDSTYSLSSTLTLSKADYEKHKVYACEVTHQGLSSPVTKSFNRGEC
notes: as for B1
With B4, in assay [1], the “He_3a/2b (IIIa/IIb)” value turned out to be 1.26 ratio. Further, in assay [2], the “He/Con_2b (relative binding activity)” value was 65.4 % of control. In assay [3], the “He/Con_3a (relative binding activity)” value is 82.5 % of control.

B5: GpH7-A5/GpH7-B3 variant S298_09D/GpL16-k0 (antibody, human IgG1, kappa)
heavy 1: not shown
heavy 2: not shown
light: DIVMTQSPLSLPVTPGEPASISCQASESLVHSNRNTYLHWYLQKPGQSPQLLIYKVSNRFSGVPDRFSGSGSGTDFTLKISRVEAEDVGVYYCSQNTHVPPTFGQGTKVEIERTVAAPSVFIFPPSDEQLKSGTASVVCLLNNFYPREAKVQWKVDNALQSGNSQESVTEQDSKDSTYSLSSTLTLSKADYEKHKVYACEVTHQGLSSPVTKSFNRGEC
notes: as for B1
For the molecule B5, in assay [1], the “He_3a/2b (IIIa/IIb)” value turned out to be 1.38 ratio. For the same molecule, the “He/Con_2b (relative binding activity)” value in assay [2] was 48.3 % of control. In assay [3], the “He/Con_3a (relative binding activity)” value was 66.7 % of control.

B6: GpH7-A5/GpH7-B3 variant S324_01G/GpL16-k0 (antibody, human IgG1, kappa)
heavy 1: not shown
heavy 2: not shown
light: DIVMTQSPLSLPVTPGEPASISCQASESLVHSNRNTYLHWYLQKPGQSPQLLIYKVSNRFSGVPDRFSGSGSGTDFTLKISRVEAEDVGVYYCSQNTHVPPTFGQGTKVEIERTVAAPSVFIFPPSDEQLKSGTASVVCLLNNFYPREAKVQWKVDNALQSGNSQESVTEQDSKDSTYSLSSTLTLSKADYEKHKVYACEVTHQGLSSPVTKSFNRGEC
notes: as for B1
With B6, in assay [1], the “He_3a/2b (IIIa/IIb)” value stood at 1.29 ratio. Moreover, the “He/Con_2b (relative binding activity)” value in assay [2] was 81.1 % of control. Further, in assay [3], the “He/Con_3a (relative binding activity)” value is 105 % of control.

B7: GpH7-A5/GpH7-B3 variant Q295_18N/GpL16-k0 (antibody, human IgG1, kappa)
heavy 1: not shown
heavy 2: not shown
light: DIVMTQSPLSLPVTPGEPASISCQASESLVHSNRNTYLHWYLQKPGQSPQLLIYKVSNRFSGVPDRFSGSGSGTDFTLKISRVEAEDVGVYYCSQNTHVPPTFGQGTKVEIERTVAAPSVFIFPPSDEQLKSGTASVVCLLNNFYPREAKVQWKVDNALQSGNSQESVTEQDSKDSTYSLSSTLTLSKADYEKHKVYACEVTHQGLSSPVTKSFNRGEC
notes: as for B1
In the case of B7, the “He_3a/2b (IIIa/IIb)” value in assay [1] came to 1.26 ratio. For the same molecule, the “He/Con_2b (relative binding activity)” value in assay [2] was 64.9 % of control. In addition, in assay [3], the “He/Con_3a (relative binding activity)” value is 81.6 % of control.

B8: GpH7-A5/GpH7-B3 variant S298_16H/GpL16-k0 (antibody, human IgG1, kappa)
heavy 1: not shown
heavy 2: not shown
light: DIVMTQSPLSLPVTPGEPASISCQASESLVHSNRNTYLHWYLQKPGQSPQLLIYKVSNRFSGVPDRFSGSGSGTDFTLKISRVEAEDVGVYYCSQNTHVPPTFGQGTKVEIERTVAAPSVFIFPPSDEQLKSGTASVVCLLNNFYPREAKVQWKVDNALQSGNSQESVTEQDSKDSTYSLSSTLTLSKADYEKHKVYACEVTHQGLSSPVTKSFNRGEC
notes: as for B1
On to B8, for which the “He_3a/2b (IIIa/IIb)” value in assay [1] is 1.2 ratio. The “He/Con_2b (relative binding activity)” value in assay [2] was 63.5 % of control. In assay [3], the “He/Con_3a (relative binding activity)” value is 76.5 % of control.

B9: GpH7-A5/GpH7-B3 variant S298_15Y/GpL16-k0 (antibody, human IgG1, kappa)
heavy 1: not shown
heavy 2: not shown
light: DIVMTQSPLSLPVTPGEPASISCQASESLVHSNRNTYLHWYLQKPGQSPQLLIYKVSNRFSGVPDRFSGSGSGTDFTLKISRVEAEDVGVYYCSQNTHVPPTFGQGTKVEIERTVAAPSVFIFPPSDEQLKSGTASVVCLLNNFYPREAKVQWKVDNALQSGNSQESVTEQDSKDSTYSLSSTLTLSKADYEKHKVYACEVTHQGLSSPVTKSFNRGEC
notes: as for B1
As for B9, in assay [1], the “He_3a/2b (IIIa/IIb)” value came out at 1.39 ratio. Further, the “He/Con_2b (relative binding activity)” value in assay [2] was 61.4 % of control. The “He/Con_3a (relative binding activity)” value in assay [3] was 85.6 % of control.

B10: GpH7-A5/GpH7-B3 variant Q295_16H/GpL16-k0 (antibody, human IgG1, kappa)
heavy 1: not shown
heavy 2: not shown
light: DIVMTQSPLSLPVTPGEPASISCQASESLVHSNRNTYLHWYLQKPGQSPQLLIYKVSNRFSGVPDRFSGSGSGTDFTLKISRVEAEDVGVYYCSQNTHVPPTFGQGTKVEIERTVAAPSVFIFPPSDEQLKSGTASVVCLLNNFYPREAKVQWKVDNALQSGNSQESVTEQDSKDSTYSLSSTLTLSKADYEKHKVYACEVTHQGLSSPVTKSFNRGEC
notes: as for B1
B10: the “He_3a/2b (IIIa/IIb)” value in assay [1] is 1.22 ratio. In addition, in assay [2], the “He/Con_2b (relative binding activity)” value was 62.7 % of control. Besides, the “He/Con_3a (relative binding activity)” value in assay [3] is 76.4 % of control.

B11: GpH7-A5/GpH7-B3 variant Q295_14T/GpL16-k0 (antibody, human IgG1, kappa)
heavy 1: not shown
heavy 2: not shown
light: DIVMTQSPLSLPVTPGEPASISCQASESLVHSNRNTYLHWYLQKPGQSPQLLIYKVSNRFSGVPDRFSGSGSGTDFTLKISRVEAEDVGVYYCSQNTHVPPTFGQGTKVEIERTVAAPSVFIFPPSDEQLKSGTASVVCLLNNFYPREAKVQWKVDNALQSGNSQESVTEQDSKDSTYSLSSTLTLSKADYEKHKVYACEVTHQGLSSPVTKSFNRGEC
notes: as for B1
As for B11, the “He_3a/2b (IIIa/IIb)” value in assay [1] was found to be 1.72 ratio. Also, in assay [2], the “He/Con_2b (relative binding activity)” value was 66.8 % of control. Also, the “He/Con_3a (relative binding activity)” value in assay [3] was 115 % of control.

B12: GpH7-A5/GpH7-B3 variant S298_03V/GpL16-k0 (antibody, human IgG1, kappa)
heavy 1: not shown
heavy 2: not shown
light: DIVMTQSPLSLPVTPGEPASISCQASESLVHSNRNTYLHWYLQKPGQSPQLLIYKVSNRFSGVPDRFSGSGSGTDFTLKISRVEAEDVGVYYCSQNTHVPPTFGQGTKVEIERTVAAPSVFIFPPSDEQLKSGTASVVCLLNNFYPREAKVQWKVDNALQSGNSQESVTEQDSKDSTYSLSSTLTLSKADYEKHKVYACEVTHQGLSSPVTKSFNRGEC
notes: as for B1
Take B12: the “He_3a/2b (IIIa/IIb)” value in assay [1] came to 1.69 ratio. The “He/Con_2b (relative binding activity)” value in assay [2] is 64.5 % of control. Further, in assay [3], the “He/Con_3a (relative binding activity)” value is 109 % of control.

B13: GpH7-A5/GpH7-B3 variant S298_07I/GpL16-k0 (antibody, human IgG1, kappa)
heavy 1: not shown
heavy 2: not shown
light: DIVMTQSPLSLPVTPGEPASISCQASESLVHSNRNTYLHWYLQKPGQSPQLLIYKVSNRFSGVPDRFSGSGSGTDFTLKISRVEAEDVGVYYCSQNTHVPPTFGQGTKVEIERTVAAPSVFIFPPSDEQLKSGTASVVCLLNNFYPREAKVQWKVDNALQSGNSQESVTEQDSKDSTYSLSSTLTLSKADYEKHKVYACEVTHQGLSSPVTKSFNRGEC
notes: as for B1
On to B13, for which, in assay [1], the “He_3a/2b (IIIa/IIb)” value was determined as 1.37 ratio. Besides, in assay [2], the “He/Con_2b (relative binding activity)” value was 70.6 % of control. In addition, in assay [3], the “He/Con_3a (relative binding activity)” value is 96.4 % of control.
